What was measured:
[1] = target: hSlo1EM-eGFP-twin-strep (human Slo1 channel, tags on) (human)
[2] = target: hSlo1EM (human Slo1 channel, tags released) (human); experiment: SEC
[3] = target: hSlo1EM-eGFP-twin-strep (human Slo1 channel, tags on) (human); remark: listed apart in the source
[4] = target: hSlo1EM-eGFP-twin-strep (human Slo1 channel, tags on) (human); remark: listed apart in the source
SEC = target: the molecule itself; experiment: SEC
[5] = target: hSlo1EM-eGFP-twin-strep (human Slo1 channel, tags on) (human); remark: listed apart in the source
cryo-EM structure = target: the molecule itself; experiment: cryo-EM structure
[6] = target: hSlo1EM (human Slo1 channel, tags released) (human); experiment: cryo-EM structure

Chain of hSlo1EM-eGFP-twin-strep (human Slo1 channel, tags on) (human) (Q12791 whole entry): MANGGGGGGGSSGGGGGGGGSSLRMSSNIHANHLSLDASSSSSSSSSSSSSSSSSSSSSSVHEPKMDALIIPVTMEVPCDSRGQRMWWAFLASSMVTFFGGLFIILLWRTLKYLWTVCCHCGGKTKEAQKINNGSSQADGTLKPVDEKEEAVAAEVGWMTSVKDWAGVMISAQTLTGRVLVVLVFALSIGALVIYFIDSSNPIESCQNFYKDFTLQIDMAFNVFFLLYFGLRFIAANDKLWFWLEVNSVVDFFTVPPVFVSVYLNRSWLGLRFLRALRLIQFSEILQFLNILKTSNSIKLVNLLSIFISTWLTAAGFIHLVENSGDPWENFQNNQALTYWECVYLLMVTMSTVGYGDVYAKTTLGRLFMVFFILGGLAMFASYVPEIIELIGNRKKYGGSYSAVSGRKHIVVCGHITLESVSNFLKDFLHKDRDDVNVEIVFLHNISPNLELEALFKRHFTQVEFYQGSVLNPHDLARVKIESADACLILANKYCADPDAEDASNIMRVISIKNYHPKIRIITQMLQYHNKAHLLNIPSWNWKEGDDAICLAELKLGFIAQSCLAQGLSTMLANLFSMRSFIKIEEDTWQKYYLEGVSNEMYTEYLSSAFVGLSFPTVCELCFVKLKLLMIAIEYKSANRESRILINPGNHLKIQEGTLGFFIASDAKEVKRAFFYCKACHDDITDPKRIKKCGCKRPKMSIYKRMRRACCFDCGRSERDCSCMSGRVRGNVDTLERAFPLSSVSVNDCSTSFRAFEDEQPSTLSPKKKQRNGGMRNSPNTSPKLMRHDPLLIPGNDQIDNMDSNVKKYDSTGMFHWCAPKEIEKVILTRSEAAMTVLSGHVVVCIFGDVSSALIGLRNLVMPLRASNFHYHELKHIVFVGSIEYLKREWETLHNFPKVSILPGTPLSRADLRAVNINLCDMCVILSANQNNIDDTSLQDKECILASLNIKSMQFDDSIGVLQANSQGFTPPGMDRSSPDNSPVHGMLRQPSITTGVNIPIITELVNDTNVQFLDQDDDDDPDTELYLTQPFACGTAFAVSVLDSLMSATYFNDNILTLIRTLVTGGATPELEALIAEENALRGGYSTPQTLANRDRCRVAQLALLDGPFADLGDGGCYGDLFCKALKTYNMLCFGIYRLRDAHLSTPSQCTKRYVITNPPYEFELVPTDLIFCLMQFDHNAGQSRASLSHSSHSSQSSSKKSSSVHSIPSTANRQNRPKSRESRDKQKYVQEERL
Chain of hSlo1EM-eGFP-twin-strep (human Slo1 channel, tags on) (natural protein) (Q12791 whole entry): as above

Row | Molecule | percent of total Slo1 in complex [3] [%] | stoichiometry N (auxiliary subunits per Slo1 tetramer) [4] | also measured
1 | hSlo1EM-eGFP-twin-strep (human Slo1 channel, tags on) (natural protein) |  |  | stoichiometry N [1]: 4 subunits
2 | hSlo1EM (human Slo1 channel, tags released) (natural protein) |  |  | stoichiometry N [2]: 4 subunits
3 | LRRC55 (γ3)-mCherry-FLAG (natural protein) GTSCPVLCTCRNQVVDCSSQRLFSVPPDLPMDTRNLSLAHNRITAVPPGYLTCYMELQVLDLHNNSLMELPRGLFLHAKRLAHLDLSYNNFSHVPADMFQEAHGLVHIDLSHNPWLRRVHPQAFQGLMQLRDLDLSYGGLAFLSLEALEGLPGLVTLQIGGNPWVCGCTMEPLLKWLRNRIQRCTADSQLAECRGPPEVEGAPLFSLTEESFKACHLTLTLDDYLFIAFVGFVVSIASVATNFLLGITANCCHRWSKASEEEEI | < 10 |  | 
4 | LRRD of γ1 (residues 1-261)-mCherry-FLAG (domain or fragment, human, UniProt Q2I0M4 27-261, looked up) QVSATASPSGSLGAPDCPEVCTCVPGGLASCSALSLPAVPPGLSLRLRALLLDHNRVRALPPGAFAGAGALQRLDLRENGLHSVHVRAFWGLGALQLLDLSANQLEALAPGTFAPLRALRNLSLAGNRLARLEPAALGALPLLRSLSLQDNELAALAPGLLGRLPALDALHLRGNPWGCGCALRPLCAWLRRHPLPASEAETVLCVWPGRLTLSPLTAFSDAAFSHCAQPLALRD |  |  | binding result (SEC): binds
5 | LRRC38 (γ4)-mCherry-FLAG (natural protein) CPAGCACTDPHTVDCRDRGLPSVPDPFPLDVRKLLVAGNRIQRIPEDFFIFYGDLVYLDFRNNSLRSLEEGTFSGSAKLVFLDLSYNNLTQLGAGAFRSAGRLVKLSLANNNLVGVHEDAFETLESLQVLELNDNNLRSLSVAALAALPALRSLRLDGNPWLCDCDFAHLFSWIQENASKLPKGLDEIQCSLPMESRRISLRELSEASFSECRFSLSLTDLCIIIFSGVAVSIAAIISSFFLATVVQCLQRCAPNKDAEDEDEDKDD | < 10 |  | 
6 | human LRRC26 (γ1)-mCherry-FLAG (natural protein, UniProt Q2I0M4 27-334, looked up) QVSATASPSGSLGAPDCPEVCTCVPGGLASCSALSLPAVPPGLSLRLRALLLDHNRVRALPPGAFAGAGALQRLDLRENGLHSVHVRAFWGLGALQLLDLSANQLEALAPGTFAPLRALRNLSLAGNRLARLEPAALGALPLLRSLSLQDNELAALAPGLLGRLPALDALHLRGNPWGCGCALRPLCAWLRRHPLPASEAETVLCVWPGRLTLSPLTAFSDAAFSHCAQPLALRDLAVVYTLGPASFLVSLASCLALGSGLTACRARRRRLRTAALRPPRPPDPNPDPDPHGCASPADPGSPAAAAQA | 50 | 4 | stoichiometry N (γ1 subunits per Slo1 tetramer) [5]: 3.5; binding result (SEC): binds
7 | human LRRC26 (γ1) subunit, tags released (natural protein, UniProt Q2I0M4 27-334, looked up, density at N147 likely corresponding to glycosylation) QVSATASPSGSLGAPDCPEVCTCVPGGLASCSALSLPAVPPGLSLRLRALLLDHNRVRALPPGAFAGAGALQRLDLRENGLHSVHVRAFWGLGALQLLDLSANQLEALAPGTFAPLRALRNLSLAGNRLARLEPAALGALPLLRSLSLQDNELAALAPGLLGRLPALDALHLRGNPWGCGCALRPLCAWLRRHPLPASEAETVLCVWPGRLTLSPLTAFSDAAFSHCAQPLALRDLAVVYTLGPASFLVSLASCLALGSGLTACRARRRRLRTAALRPPRPPDPNPDPDPHGCASPADPGSPAAAAQA |  |  | binding result (cryo-EM structure): binds; stoichiometry N (γ1 subunits per Slo1 tetramer) [6]: 4
8 | γ1 P270F-mCherry-FLAG (natural protein) QVSATASPSGSLGAPDCPEVCTCVPGGLASCSALSLPAVPPGLSLRLRALLLDHNRVRALPPGAFAGAGALQRLDLRENGLHSVHVRAFWGLGALQLLDLSANQLEALAPGTFAPLRALRNLSLAGNRLARLEPAALGALPLLRSLSLQDNELAALAPGLLGRLPALDALHLRGNPWGCGCALRPLCAWLRRHPLPASEAETVLCVWPGRLTLSPLTAFSDAAFSHCAQPLALRDLAVVYTLGFASFLVSLASCLALGSGLTACRARRRRLRTAALRPPRPPDPNPDPDPHGCASPADPGSPAAAAQA |  |  | stoichiometry N (γ subunits per Slo1 tetramer) [4]: 2.4

The next lines start with results.

Row | percent of total Slo1 in complex [3] [%] | stoichiometry N (auxiliary subunits per Slo1 tetramer) [4] | Molecule | also measured
9 | > 90 | 4 | β4 subunit-mCherry-FLAG (natural protein) MAKLRVAYEYTEAEDKSIRLGLFLIISGVVSLFIFGFCWLSPALQDLQATEANCTVLSVQQIGEVFECTFTCGADCRGTSQYPCVQVYVNNSESNSRALLHSDEHQLLTNPKCSYIPPCKRENQKNLESVMNWQQYWKDEIGSQPFTCYFNQHQRPDDVLLHRTHDEIVLLHCFLWPLVTFVVGVLIVVLTICAKSLAVKAEAMKKRKFS | 
10 | > 90 | 4 | β2 subunit-mCherry-FLAG (natural protein) MFIWTSGRTSSSYRHDEKRNIYQKIRDHDLLDKRKTVTALKAGEDRAILLGLAMMVCSIMMYFLLGITLLRSYMQSVWTEESQCTLLNASITETFNCSFSCGPDCWKLSQYPCLQVYVNLTSSGEKLLLYHTEETIKINQKCSYIPKCGKNFEESMSLVNVVMENFRKYQHFSCYSDPEGNQKSVILTKLYSSNVLFHSLFWPTCMMAGGVAIVAMVKLTQYLSLLCERIQRINR | 
